# Results taken from CN116440263A (SHANGHAI JUNSHI BIOSCIENCES CO LTD; JUNMENG BIOSCIENCES CO …, dated 2023).
# B1: huJS007-47 (antibody, V domains shown)
# VH: QVQLQESGPGLVKPSQTLSLTCTVSAYSITSGYYWNWIRQHPGKGLEWIGYIGYDGSNNYNPSLKSRVTISRDTSKNQFSLKLSSVTAADTAVYYCARDYYSGYFDSWGQGTTLTVSS
# VL: DIQMTQSPSSLSASVGDRVTITCRASQNVGTYVAWYQQKPGKVPKPLIYSTSYRYSGVPSRFSGSGSGTDFTLTISSLQPEDVATYFCHQYDTYPLTFGAGTKLELKR
# Molecular target: T1, His标签的重组人CTLA-4抗原蛋白 (human, UniProt P16410 36-161, limits assumed)
# T1 construct: Made in-house (君盟自制); also called 重组人CTLA-4蛋白; 人CTLA-4蛋白; not shown: His tag
# T1 sequence (looked up): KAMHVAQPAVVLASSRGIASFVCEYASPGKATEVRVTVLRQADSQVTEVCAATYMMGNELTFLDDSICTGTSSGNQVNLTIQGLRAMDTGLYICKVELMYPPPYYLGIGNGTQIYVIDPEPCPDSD
# Experiment: SPR (Biacore T200): antibody captured on goat anti-human Fc CM5 chip, His-tagged CTLA-4 0.75-24 nM as analyte, kinetic fit
binder,measurement,value
B1,Kd,0.206 nM
same,koff,0.000169 s⁻¹
same,kon,818000 M⁻¹ s⁻¹
